# Source: the RNAGym collection of RNA variant scans (doi:10.1073/pnas.2313332121)
# Fewer inactive variants are shown than the library holds.
# B1: TPR 5TU (parent)
# chain: GGAUCUUCUCGAUCUAACAAAAAAGACAAAUCUGCCACAAAGCUUGAGAGCAUCUUCGGAUGCAGAGGCGGCAGCCUUCGGUGGCGCGAUAGCGCCAACGUUCUCAACUAUGACACGCAAAACGCGUGCUCCGUUGAAUGGAGUUUAUCAUG
# Variants of: B1
# Assay: polymerase ribozyme fitness, log enrichment relative to wild type (log ratio); higher = more active; in vitro selection for triplet polymerase activity
# In short: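 Fitness compares each genotype's enrichment to that of the wild type on a logarithmic scale, averaging replicates with inverse-variance weights. The logarithm is base 2. Enrichment came from Illumina sequencing of input and output libraries after one triplicate round of in vitro selection, which included frozen incubation at −7 °C, of PCR-built, transcribed mutant libraries of each subunit of a heterodimeric triplet polymerase ribozyme. Only genotypes with ≥10 input reads and ≥1 read per output were kept.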
row,Variant,polymerase ribozyme fitness (log ratio)
1,GGAUCUUCUCGAUCUAACAAAAAAGACAAAUCUGCCACAAAGCUUGAGAGCAUCUUUGGAUGCAGAGGCGGCAGCCUUCGGUAGCGCAGUAGCGCCAACGUUCUCAACUAUGACACGCAAAACGCGUGCUCCGGUGAAUGGAGUUUAUCAUG [C57U G83A G88A A89G U134G],≤ -4.2
2,GGAUCUUCUCGAUCUAACAAAAAAGACAAAUCUGCCACAAAGCUUGAGAGCAUCUUCAGAUGCAGAGGCGGCAGCCUUCGGUGGCGCGAUAGCGCCAACGUUCUCAACUAUGACACGCAAAACGCGUGCUCCGUUGAAUGGAGUUUAUCAUG [G58A],0.338
3,GGAUCUUCUCGAUCUAACAAAAAAGACAAAUCUGCCACAAAGCUUGAGAGCAUCUUUGGAUGCAGAGGCGGCAGCCUUCGGUGGCGCGAUAGCUCCAACGUUCUCAACUAUGACACGUAAAACGCGUGCUCCGUUGAAUGGAUUUUAUCAUG [C57U G94U C118U G143U],≤ -4.2
4,GGAUCUUCUCGAUCUAACAAAAAAGACAAAUCUGCCACAAAGCUUGAGAGCAUCUUUGGAUGCAGAGGCGGCAGCCUUCGGUGGCGCUAUAGCGCCAACAUUCUCACCUAUGACACGCAAAACGCGUGCUCCGUUGAAUGGAGUUUAUCAUG [C57U G88U G100A A107C],≤ -4.2
5,GGAUCUUCUCGAUCUAACAAAAAAGACAAAUCUGCCACAAAGCUUGAGAGCAUCUUCAGCUGAAGAGGCGGCAGCCUUCGGGGGCGCCAUAGCGACAACGUUCUCAACUAUGGCACGCAAAACGCGUGCUCCGUUGAAUGGAGUUUGUCAUG [G58A A60C C63A U82G G88C C95A A113G A147G],≤ -4.2
6,GGAUCUUCUCGAUCUAACAAAAAAGACAAAUCUGCCACAAAGCUUGAGAGCAUCUUCAGAUGCUGAGGCGGCAACCUUAGGUGGCGCGACAGCGCAAACGUUCUCAACUAUGACACGCAAAACGCGUGCUCCGUUGAAUGGAGUUUAUAAUG [G58A A64U G74A C79A U90C C96A C149A],≤ -4.2
7,GGAUCUUCUCGAUCUAACAAAAAAGACAAAUCUGCCACAAAGCUUGAGAGCAUCUUUGGAUGCAGAGGCGGCAGCCUUCGGUGGCGCGAUAGCGCCAACGUUCUCAACUAUGACACGCAAAACGCGUGCUCCGUUGAAUGGAGUUUAUCAAG [C57U U151A],-4.18
8,GGAUCUUCUCGAUCUAACAAAAAAGACAAAUCUGCCACAAAGCUUGAGAGCAUCUUUGGAUGCAGAGGCGGCAGCCUUCGGUGGCGCGAUAGCUCCAACGUUCUCAACUAUGACACGCAAAACGCGUGCUCCGUUGAAUGGAGUUUAUCAUG [C57U G94U],-0.85
9,GGAUCUUCUCGAUCUAACAAAAAAGACAAAUCUGCCACAAAGCUUGAGAGCAUCUUUGGAUGCAGAGGCGGCAGCCUUCGGUGGCGCGAUAGCACCAACGUUCUCAACUAUGACACGCAAAACGCGUGCUCCGUUGAAUGGAGUUUAUCAUG [C57U G94A],-0.629
10,GGAUCUUCUCGAUCUAACAAAAAAGACAAAUCUGCCACAAAGCUUGAGAGCAUCUUUGGAUGCAGAGGCGGCAGCCUUCGGUGGCGCGAUAGCGCCAACGUUCUCAACUAUGACACGCAAAACGCGUGCGUCGUUGAAUGGAGUUUAUCAUG [C57U U130G C131U],-4.19
11,GGAUCUUCUCGAUCUAACAAAAAAGACAAAUCUGCCACAAAGCUUGAGAGCAUCUUUGGAUGCAGAGGCGGCAGCCUUCGGUGCCGCGAUAGCGACAACGUUCUCAACUAUGACAGGCAAAACGCGUGCUCCGUUUACUGGAGUUUAUCAUG [C57U G84C C95A C116G G136U A138C],-4.17
12,GGAUCUUCUCGAUCUAACAAAAAAGACAAAUCUGCCACAAAGCUUGAGAGCAUCUUCAGAUGCGGAGGCGGCAGCCUUCGGUGGCGCGAUCGCGCCAACGUUCUCAACUAUGACACGCAAAACGCGUGCUCCGUUGAAUGGAGUUUUUCAUG [G58A A64G A91C A147U],≤ -4.2
13,GGAUCUUCUCGAUCUAACAAAAAAGACAAAUCUGCCACAAAGCUUGAGAGCAUCUUUGGAUGCAGAGGCAGCAGCCUUCGGUCGCGCGAUAGCGCCAACGUUCUCAACUAUGACACGCAAAACGCGUGCUCCGUUGAAGGGAGUUUAUCAUG [C57U G70A G83C U139G],≤ -4.2
14,GGAUCUUCUCGAUCUAACAAAAAAGACAAAUCUGCCACAAAGCUUGAGAGCAUCUUUGGAUGCAGAGGCGGCAGCCUUCGGUCGCGCGAUAGCGCCAACGUUCUCAACUAUGACACGCAAAACGCGUGCUCCGUUGAAUGGAGUUUAUCAUG [C57U G83C],-0.999
15,GGAUCUUCUCGAUCUAACAAAAAAGACAAAUCUGCCACAAAGCUUGAGAGCAUCUUUGGAUGCAGAGGCGGCAGCCUUCGGUGACGCGAUAGCGCCAACGUUCUCAACUAUGACACGCAAAACGCGUGCUCCGUUGAAUGGAGUUUAUCAUG [C57U G84A],-0.782
16,GGAUCUUCUCGAUCUAACAAAAAAGACAAAUCUGCCACAAAGCUUGAGAGCAUCUUUGGAUGCAGAGGCGGCAGCCUUCGGUUGCGCGAUAGCGCCAACGUUCUCAACUAUGACACGCAAAACGCGUGCUCCGUUGGAUGGAGUUUAUCAUG [C57U G83U A137G],-1.92
17,GGAUCUUCUCGAUCUAACAAAAAAGACAAAUCUGCCACAAAGCUUGAGAGCAUCUUUGGAUGCAGAGGCGGCAGCCUUCGGUGGCGCGAUAGCGCCAACGUUCUCAACUAUGACACGCAAAACGCGCGCUCCGUUGAAUGGAGUUUAUCAUG [C57U U127C],-2.13
18,GGAUCUUCUCGAUCUAACAAAAAAGACAAAUCUGCCACAAAGCUUGAGAGCAUCUUCAGAUGCAGAGGCGGCGGCCUUCGGUGGCGCGAUAGCGCCAACGUUCUCAACUAUGACAUGCAAAACGCGUGCUCCGUUGAAUGGAGUUUAUCAUG [G58A A73G C116U],0.431
19,GGAUCUUCUCGAUCUAACAAAAAAGACAAAUCUGCCACAAAGCUUGAGAGCAUCUUUGGAUGCAGAGGCGGCAGCCUACAGUGGCGCGAUAGCGCCAACGUUCUCAACUAUGACACGCAAAACGCGUGCUCCGUUGAGGGGAGUUUAUCAUG [C57U U78A G80A A138G U139G],≤ -4.2

row,Variant,polymerase ribozyme fitness (log ratio)
1,GGAUCUUCUCGAUCUAACAAAAAAGACAAAUCUGCCACAAAGCUUGAGAGCAUCUUUGGAUGCAGAGGCGGCAGCCUUCGGUGGCGCGAUAGCGCCAACGUUCUCAACUAUGACACGCAAAACGCGUUCUCCGUUGAAUGGAGUUUAUCAUG [C57U G128U],-3.2
2,GGAUCUUCUCGAUCUAACAAAAAAGACAAAUCUGCCACAAAGCUUGAGAGCAUCUUUGGAUGCAGAGGCGGCAGCCUUCGGUGGCGCGAUAGCCCCAACGUUCUCAACUAUGACAUGCAAAACGCGUGCUCCGUUGAAUGGAGUUUAUCAUG [C57U G94C C116U],0.445
3,GGAUCUUCUCGAUCUAACAAAAAAGACAAAUCUGCCACAAAGCUUGAGAGCAUCUUUGGAUGCAGAGGCGGCAGCCUUCGGAGGCGCGAUAGAGCCAACGUUCUCAACUAUUACAUGCAAAACGCGUGCUCCGUUGAAUGGAGUUUAUCAUG [C57U U82A C93A G112U C116U],≤ -4.2
4,GGAUCUUCUCGAUCUAACAAAAAAGACAAAUCUGCCACAAAGCUUGAGAGCAUCUUUGGAAGCAGAGGCGGCAGCCUUCGCUGGCGCGAUAGCGCCAACGUUCUCAUCUAUGACACGCAAAACGCGUGCUCCGUUGAAUGGAGUUUAUCAUG [C57U U61A G81C A107U],≤ -4.2
5,GGAUCUUCUCGAUCUAACAAAAAAGACAAAUCUGCCACAAAGCUUGAGAGCAUCUUUGGAUGCAGAGGCGGCAGCCUUCGGUGGCGCGAUAGCGCCAACGUAUUCAACUAUGACACGCAAAACGCGUGCUCCGUUGAAUGGAGUUUAUCAUG [C57U U102A C103U],-1.15
6,GGAUCUUCUCGAUCUAACAAAAAAGACAAAUCUGCCACAAAGCUUGAGAGCAUCUUUGGAAGCAGAGGCGGCAGCCUUCGGUGGCGCGUUAGCGCCAACGUUCUCGACUAUGACACGCAAAGCGCGUGCUCCGUUGAAUGGAGUUUAUCGUG [C57U U61A A89U A106G A122G A150G],-3.73
7,GGAUCUUCUCGAUCUAACAAAAAAGACAAAUCUGCCACAAAGCUUGAGAGCAUCUUCAGAUGCAGAGGCGGCCGCCUUCGGUGGCGCGAUAGCGCCAACGUUCUCAACUAUGACACGCAAAACGCGUGCUCCGUUGAAUGGAGUUUAUCAUG [G58A A73C],-1.62
8,GGAUCUUCUCGAUCUAACAAAAAAGACAAAUCUGCCACAAAGCUUGAGAGCAUCUUCAGAUGCAGAGGCGGCUGCCUUCGGUGGCGCGAUAGCGCCAACGGACUCAACAAUGACACGCAAAACGCGUGCUCCGUUGAAUGGAGUUUAUCAUG [G58A A73U U101G U102A U109A],≤ -4.2
9,GGAUCUUCUCGAUCUAACAAAAAAGACAAAUCUGCCACAAAGCUUGAGAGCAUCUUUGGAUGCAGAGGCGGCAGCCUUCGGUGGCGCGAUAGCGCCAACGUUCUCAACUAUGACACGCAAAACGCGUGCUCCGUUGAAUCGAGUUUAUCAUG [C57U G140C],-3.55
10,GGAUCUUCUCGAUCUAACAAAAAAGACAAAUCUGCCACAAAGCUUGAGAGCAUCUUUGGAGGCAGAGGCGGCAGCCUUCGGUGGCACGUUAGCGCCAACGUUCUCAACUAUGACACGCAAAACGCGUGCUCCGUUGAAUGGAGUUUAUCAUG [C57U U61G G86A A89U],-3.74
11,GGAUCUUCUCGAUCUAACAAAAAAGACAAAUCUGCCACAAAGCUUGAGAGCAUCUUUGGAUGCAGAGGCGGCAGCCUUCGGUGGCGCGAUAGCGCCAACGUUCUCAACUAUGACACGCAAAACGCGUGCUCCGUGGAAUGGAGUUUAUCAUG [C57U U135G],-4.05
12,GGAUCUUCUCGAUCUAACAAAAAAGACAAAUCUGCCACAAAGCUUGAGAGCAUCUUUGGAUGCAGAGGCGGCAGCCUUCGGUGGCGCGAUACCGCCCACGUUCUCAACUAUGACACGCAAAACGCGUGCUCCGUUGAAUGGAGUAUAUCAUG [C57U G92C A97C U145A],0.369
13,GGAUCUUCUCGAUCUAACAAAAAAGACAAAUCUGCCACAAAGCUUGAGAGCAUCUUUGGAUGCAGAGGCGGCAGCCUUCGGUGGCACGAUAGCGCCAACGUUCUCAACUAUGACACGCAAAACGCGUGCUCCGUUGAAUGGAGUUUAUCAUG [C57U G86A],-1.16
14,GGAUCUUCUCGAUCUAACAAAAAAGACAAAUCUGCCACAAAGCUUGAGAGCAUCUUUGGAUGCAGAGGCGGCAGCCUUCGGUGGCUCGAUAGCGCCAACGUUCUCAACUAUGACACGCAAAACGCGUGCUCCGUUGAAUGGAGUUUAUCAUG [C57U G86U],-1.78
15,GGAUCUUCUCGAUCUAACAAAAAAGACAAAUCUGCCACAAAGCUUGAGAGCAUCUUUGGAUGCAGAGGCUGCAGCCUUAGGUGGCGCGAUAGGGCCAACGUUCUGAACUAUGACACGCAAAACGCGUGCUCCGUUGAAUGGACUUUAUCAUG [C57U G70U C79A C93G C105G G143C],≤ -4.2
16,GGAUCUUCUCGAUCUAACAAAAAAGACAAAUCUGCCACAAAGCUUGAGAGCAUCUUCAGAUGCAGGGGCGGCAGCCUUCGGUGGCGCGAUAGUGCCAAUGUUCUCAACUAUGACACGCAAAACGCGUGCUCCGUUGAAUGGAGUUUAUCAUG [G58A A66G C93U C99U],≤ -4.2
17,GGAUCUUCUCGAUCUAACAAAAAAGACAAAUCUGCCACAAAGCUUGAGAGCAUCUUUGGAUGCAGAGGCGGCAGCCUUCGGUGACGCGAUAGCGCCAUCGUUCUCAACUAUGACACGCAAAACGCGUGUUCCGUUGAAUGGAGUUUUUCAUG [C57U G84A A98U C129U A147U],-1.13
18,GGAUCUUCUCGAUCUAACAAAAAAGACAAAUCUGCCACAAAGCUUGAGAGCAUCUUUGGAUGCAGAGGCGGCAGCCUUCGGUGGCGCGAUAGCGCCAACGUUCUCAACUAUGACACGCAAAACGCCUGCUCCGUUGAAUGGAGUUUAUCAUG [C57U G126C],0.553
19,GGAUCUUCUCGAUCUAACAAAAAAGACAAAUCUGCCACAAAGCUUGAGAGCAUCUUCAGAUGCAGCGGCGGCACCCUUCGGUGGCGCGAUAGCGCCAACGUUCUCAACUAUGACACGCAAAACGCGUGCUGCGUUUAAUGGAGUUUAUCAUG [G58A A66C G74C C131G G136U],≤ -4.2
